Data: article PMC4413047, “‘Dopamine-first’ mechanism enables the rational engineering of the norcoclaurine synthase aldehyde activity profile” (The Febs Journal, 2015)

Experiments:
Test in all cases: purified protein
Assay type in all cases: biochemical, Thalictrum flavum
[1] = test system: O=CCc1ccc(O)cc1; details: 2.5 mM dopamine (nonsaturating), 50 mM Hepes, 37 °C
[2] = test system: CCCCCC=O; details: 2.5 mM dopamine (nonsaturating), 50 mM Hepes, 37 °C
[3] = test system: CC(C)=CCC[C@@H](C)CC=O; details: 2.5 mM dopamine (nonsaturating), 50 mM Hepes, 37 °C
[4] = test system: NCCc1ccc(O)c(O)c1; details: 2.5 mM 4-HPAA (nonsaturating), 50 mM Hepes, 37 °C
[5] = test system: CC(C)=CCC[C@H](C)CC=O; details: 2.5 mM dopamine (nonsaturating), 50 mM Hepes, 37 °C

Row | Substance | Km [1] [mM] | Vmax [1] [µmol/min/mg] | kcat [1] [s⁻¹] | kcat/Km [1] [M⁻¹ s⁻¹] | Km [2] [mM] | Vmax [2] [µmol/min/mg] | kcat [2] [s⁻¹] | kcat/Km [2] [M⁻¹ s⁻¹] | Km [3] [mM] | Vmax [3] [µmol/min/mg] | kcat [3] [s⁻¹] | kcat/Km [3] [M⁻¹ s⁻¹] | Km [4] [mM] | Vmax [4] [µmol/min/mg] | kcat [4] [s⁻¹] | kcat/Km [4] [M⁻¹ s⁻¹] | Km [5] [mM] | Vmax [5] [µmol/min/mg] | kcat [5] [s⁻¹] | kcat/Km [5] [M⁻¹ s⁻¹]
1 | TfNCS (Δ29TfNCS) (Thalictrum flavum subsp. glaucum) | 18.1 ± 1.4 | 53.6 | 18.7 ± 0.9 | 1030 ± 90 | 13.4 ± 1.8 | 12.3 | 4.3 ± 0.3 | 320 ± 50 | 0.53 ± 0.14 | 1.07 | 0.37 ± 0.03 | 710 ± 200 | 22.2 ± 1.5 | 69 | 24 ± 1 | 1090 ± 80 | 0.38 ± 0.10 | 1.32 | 0.46 ± 0.02 | 1200 ± 310
2 | TfNCS (Δ29TfNCS) (Thalictrum flavum subsp. glaucum; Y108F) |  |  |  |  | 7.6 ± 0.9 | 7.14 | 2.5 ± 0.1 | 330 ± 40 |  |  |  |  | 13.3 ± 0.7 | 29.1 | 10.2 ± 0.3 | 760 ± 50 |  |  |  | 
3 | TfNCS (Δ29TfNCS) (Thalictrum flavum subsp. glaucum; L76A) | 17.4 ± 1.0 | 40.9 | 14.3 ± 0.5 | 820 ± 50 | 13.4 ± 0.8 | 9 | 3.2 ± 0.1 | 240 ± 20 | 0.49 ± 0.11 | 1.58 | 0.55 ± 0.03 | 1130 ± 270 | 16.8 ± 1.0 | 38.9 | 13.6 ± 0.5 | 810 ± 60 | 0.59 ± 0.09 | 2.7 | 0.93 ± 0.05 | 1570 ± 250
